We go through two sequences from article PMC7884431.

For data set [1], the system named is RFL79 (Rf1) (Triticum aestivum (accession R197 for the cloned gene; source of the REMSA construct not stated)). Put plainly: EMSA. As to conditions: apparent Kd; protein mostly aggregated; 1 nM probe; Binding buffer 1x THE (34 mM Tris, 66 mM HEPES, 0.1 mM EDTA, pH 8), 0.2 M NaCl, 5 mM DTT, 5 mg/mL heparin, 0.1 mg/mL BSA, RNaseOUT (10 uL) + 5 uL protein in ….
The subject of data set [2] is RFL29a (Rf3) (Triticum aestivum (accession R0934F for the cloned gene; source of the REMSA construct not stated)). The data set can be described thus: EMSA. As to conditions: apparent Kd; protein mostly aggregated; 1 nM probe; Binding buffer 1x THE (34 mM Tris, 66 mM HEPES, 0.1 mM EDTA, pH 8), 0.2 M NaCl, 5 mM DTT, 5 mg/mL heparin, 0.1 mg/mL BSA, RNaseOUT (10 uL) + 5 uL protein in ….

For the sequence “CUGUAAAUCAAGAAUUCCUCGAAGA [BS RFL79 (orf279)]”, the Kd in data set [1] was determined as 1000 nM.
Consider “CUUCACCUGUGCACUUAUUUAUGUAU [BS RFL29a (orf279)]”, for which the Kd in data set [2] was found to be 1000 nM.
